Molecular target: T1, BMPR2 kinase domain (BMPR2^KD, residues 189-529) (human, UniProt Q13873 189-529)
T1 construct: BMPR2, type II BMP receptor, kinase domain, residues 189-529; TEV site between His tag and kinase domain; also called BMP receptor type II; source: BL21 E. coli, purified (Ni-NTA, TEV cleavage, SEC, Mono-Q); not shown: His tag, N-terminal, cleaved
T1 sequence (looked up): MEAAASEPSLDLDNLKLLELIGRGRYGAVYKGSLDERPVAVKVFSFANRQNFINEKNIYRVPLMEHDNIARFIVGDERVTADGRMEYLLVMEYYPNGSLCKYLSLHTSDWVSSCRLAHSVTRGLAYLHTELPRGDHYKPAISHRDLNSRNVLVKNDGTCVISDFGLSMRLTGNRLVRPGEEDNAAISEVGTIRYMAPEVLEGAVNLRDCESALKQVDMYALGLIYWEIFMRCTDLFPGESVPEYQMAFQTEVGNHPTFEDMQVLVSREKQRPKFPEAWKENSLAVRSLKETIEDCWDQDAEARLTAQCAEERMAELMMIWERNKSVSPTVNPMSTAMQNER
Experiment: SEC; Superdex 200 Increase 10/300 GL; kinase domains alone or as a stoichiometric mixture; also run in buffers with increasing NaCl
Details: both partners purified

Binder | binding result
ALK2 kinase domain (ALK2^KD, residues 201-499) (domain or fragment, human, UniProt Q04771 201-499, looked up, ALK2 (ACVR1), type I BMP receptor, kinase domain without the GS domain, residues 201-499; TEV site between His tag and kinase domain; also called ACVR1; ActRIA; source: SF9 insect cells, purified (Ni-NTA, TEV cleavage, SEC); not shown: His tag, N-terminal, cleaved) QRTVARQITLLECVGKGRYGEVWRGSWQGENVAVKIFSSRDEKSWFRETELYNTVMLRHENILGFIASDMTSRHSSTQLWLITHYHEMGSLYDYLQLTTLDTVSCLRIVLSIASGLAHLHIEIFGTQGKPAIAHRDLKSKNILVKKNGQCCIADLGLAVMHSQSTNQLDVGNNPRVGTKRYMAPEVLDETIQVDCFDSYKRVDIWAFGLVLWEVARRMVSNGIVEDYKPPFYDVVPNDPSFEDMRKVVCVDQQRPNIPNRWFSDPTLTSLAKLMKECWYQNPSARLTALRIKKTLTKID | binds
ALK2^KD-K492A (ALK2 kinase domain K492A) (domain or fragment, human, UniProt Q04771 201-499, looked up, ALK2 (ACVR1) kinase domain, residues 201-499, K492A; source: SF9 insect cells, purified (Ni-NTA, TEV cleavage, SEC); not shown: His tag, N-terminal, cleaved) QRTVARQITLLECVGKGRYGEVWRGSWQGENVAVKIFSSRDEKSWFRETELYNTVMLRHENILGFIASDMTSRHSSTQLWLITHYHEMGSLYDYLQLTTLDTVSCLRIVLSIASGLAHLHIEIFGTQGKPAIAHRDLKSKNILVKKNGQCCIADLGLAVMHSQSTNQLDVGNNPRVGTKRYMAPEVLDETIQVDCFDSYKRVDIWAFGLVLWEVARRMVSNGIVEDYKPPFYDVVPNDPSFEDMRKVVCVDQQRPNIPNRWFSDPTLTSLAKLMKECWYQNPSARLTALRIAKTLTKID | binds
